This series can be described thus: self-splicing fitness, log relative to wild type (ln ratio); higher = more splicing; Tetrahymena group I intron in knt gene, E. coli kanamycin selection, DiMSum; sequences stand for … in CUCUCU…GGAGGGAAAAGUUAUCAGGCAUGCACCUGGUAGCUAGUCUUUAAACCAAUAGAUUGCAUCGGUUUAAAAGGCAAGACCGUCAAAUUGCGGGAAAGGGGUCAACAGCCGUUCAGUACCAAGUCUCAGGGGAAACUUUGAGAUGGCCUUGCAAAGGGUAUGGUAAUAAGCUGACGGACAUGGUCCUAACCACGCAGCCAAGUCCUAAGUCAACAGAUCUUCUGUUGAUAUGGAUGCAGUUCACAGACUAAAUGUCGGUCGGGGAAGAUGUAUUCUUCUCAUAAGAUAUAGUCGGACCUCUCCUUAAUGGGAGCUAGCGGAUGAAGUGAUGCAACACUGGAGCCGCUGGGAACUAAUUUGUAUGCGAAAGUAUAUUGAUUAGUUUUGGAGUACUCGUGGUCG
In short, it runs like this: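 A randomised library covering all eight P1ex-region intron nucleotides was built with the intron in the knt kanamycin-resistance gene on pET-22b(+) and held in E. coli BL21(DE3). Cells were grown overnight at 37°C or 30°C on LB agar, with or without 25 μg/mL kanamycin, plus 100 μg/mL carbenicillin, 50 μM IPTG and 0.2% rhamnose, and pooled colonies were amplicon-sequenced on an Illumina HiSeq 2500. DiMSum fitness is the error-weighted combination of wild-type-normalised replicate fold changes, kanamycin versus none.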

± gives the uncertainty stated by the source.

Consider UAACAGCAAUAUUACGAGUG, for which the “self-splicing fitness (ln)” value by setting is: (30 °C) -0.621 ± 0.038; (37 °C) -0.34 ± 0.056.

As for AUACAGCAAUAUUACGUCCC, the “self-splicing fitness (ln)” value is -0.874 ± 0.14 (30 °C) and -0.261 ± 0.18 (37 °C).

Regarding GGGGAGCAAUAUUACGGGAU, the “self-splicing fitness (ln)” value is -3.44 ± 0.32 (30 °C) and -1.51 ± 0.22 (37 °C). On the same counts, the results for GUAAAGCAAUAUUACGAAUU are -2.11 ± 0.16 and -0.966 ± 0.18. As for GGGAAGCAAUAUUACGGUAU, the “self-splicing fitness (ln)” value is -2.78 ± 0.18 (30 °C) and -1.63 ± 0.15 (37 °C). Regarding CGCGAGCAAUAUUACGGUAG, the “self-splicing fitness (ln)” value runs as follows: (30 °C) -1.19 ± 0.12; (37 °C) -0.901 ± 0.13. Consider UUCUAGCAAUAUUACGUGAU, for which the “self-splicing fitness (ln)” value was -1.89 ± 0.18 (30 °C) and -1.34 ± 0.21 (37 °C). Take AUACAGCAAUAUUACGUGUA: the “self-splicing fitness (ln)” value runs as follows: (30 °C) -2.3 ± 0.093; (37 °C) -1.32 ± 0.095. On to UAUUAGCAAUAUUACGCUAA, for which the “self-splicing fitness (ln)” value (37 °C) was -1.1 ± 0.46. Consider UGCCAGCAAUAUUACGCAUC, for which the “self-splicing fitness (ln)” value (30 °C) is -3.52 ± 0.25 and the “self-splicing fitness (ln)” value (37 °C) is -2.2 ± 0.2. As for AAGUAGCAAUAUUACGCAGG, the “self-splicing fitness (ln)” value is, setting by setting: (30 °C) -3.61 ± 0.27; (37 °C) -1.87 ± 0.15. On the same counts, the results for AAGAAGCAAUAUUACGGAGU are -3.02 ± 0.15 and -2.86 ± 0.17. The corresponding values for GCAGAGCAAUAUUACGUGGA are -2.94 ± 0.4 and -3.35 ± 0.39. For UAGUAGCAAUAUUACGUCCA, the “self-splicing fitness (ln)” value (30 °C) was -0.915 ± 0.37. With GCAUAGCAAUAUUACGGGAG, the “self-splicing fitness (ln)” value runs as follows: (30 °C) -2.96 ± 0.19; (37 °C) -0.949 ± 0.12. Consider UAUCAGCAAUAUUACGUGUC, for which the “self-splicing fitness (ln)” value was -4.01 ± 0.17 (30 °C) and -1.79 ± 0.12 (37 °C). With AUAGAGCAAUAUUACGGCUA, the “self-splicing fitness (ln)” value by setting is: (30 °C) 0.361 ± 0.077; (37 °C) 0.0589 ± 0.098. On the same counts, the results for AAAGAGCAAUAUUACGACUU are -0.0829 ± 0.067 and -0.0473 ± 0.079. Take UGGUAGCAAUAUUACGAAAC: the “self-splicing fitness (ln)” value is, setting by setting: (30 °C) -4.02 ± 0.42; (37 °C) -2.42 ± 0.45. The corresponding values for UGAGAGCAAUAUUACGAUUA are -0.816 ± 0.19 and -0.653 ± 0.3.

Regarding ACAUAGCAAUAUUACGGAAA, the “self-splicing fitness (ln)” value was -2.14 ± 0.26 (30 °C) and -2.11 ± 0.2 (37 °C).

As for ACCUAGCAAUAUUACGUGAA, the “self-splicing fitness (ln)” value reads like this: (30 °C) -2.1 ± 0.097; (37 °C) -1.18 ± 0.12. In the case of UGAGAGCAAUAUUACGGACG, the “self-splicing fitness (ln)” value by setting is: (30 °C) -1.67 ± 0.28; (37 °C) -0.294 ± 0.41. Take AGCAAGCAAUAUUACGCCCA: the “self-splicing fitness (ln)” value is -0.157 ± 0.17 (30 °C) and -0.704 ± 0.22 (37 °C). The corresponding values for GGUAAGCAAUAUUACGCAUG are -2.62 ± 0.12 and -1.13 ± 0.11.

Regarding AUUGAGCAAUAUUACGAUCC, for the setting “30 °C”, the “self-splicing fitness (ln)” value is -1.32 ± 0.4. On to GUCCAGCAAUAUUACGGGCG, for which the “self-splicing fitness (ln)” value (30 °C) is -2.53 ± 0.12 and the “self-splicing fitness (ln)” value (37 °C) was -0.72 ± 0.099. GCUGAGCAAUAUUACGCGGC: the “self-splicing fitness (ln)” value (37 °C) is -1.22 ± 0.41. Regarding UGUGAGCAAUAUUACGGUGG, the “self-splicing fitness (ln)” value is, setting by setting: (30 °C) -2.64 ± 0.19; (37 °C) -3.01 ± 0.35.

On to UUGUAGCAAUAUUACGGGCG, for which the “self-splicing fitness (ln)” value is, setting by setting: (30 °C) -1.05 ± 0.14; (37 °C) 0.346 ± 0.2.

Consider CCAGAGCAAUAUUACGAGGC, for which the “self-splicing fitness (ln)” value was -2.82 ± 0.38 (30 °C) and -1.34 ± 0.41 (37 °C). Take UGCAAGCAAUAUUACGUACU: the “self-splicing fitness (ln)” value is -0.936 ± 0.13 (30 °C) and 0.0223 ± 0.17 (37 °C).

As for AUGGAGCAAUAUUACGAAUA, the “self-splicing fitness (ln)” value is, setting by setting: (30 °C) -2.15 ± 0.34; (37 °C) -1.08 ± 0.36.

Regarding AAAUAGCAAUAUUACGAGUA, the “self-splicing fitness (ln)” value is -2.58 ± 0.19 (30 °C) and -1.09 ± 0.12 (37 °C). On the same counts, the results for AGUAAGCAAUAUUACGUUAA are -2.91 ± 0.21 and -1.63 ± 0.18. On the same counts, the results for GGCCAGCAAUAUUACGAGUU are -0.659 ± 0.1 and -1 ± 0.11.

As for AUCUAGCAAUAUUACGUGCU, the “self-splicing fitness (ln)” value is -2.25 ± 0.17 (30 °C) and -1.97 ± 0.28 (37 °C). Take GCUCAGCAAUAUUACGUAGC: the “self-splicing fitness (ln)” value was -1.23 ± 0.12 (30 °C) and -1.43 ± 0.16 (37 °C). With UCCAAGCAAUAUUACGUAGC, the “self-splicing fitness (ln)” value is -3.38 ± 0.14 (30 °C) and -1.38 ± 0.11 (37 °C). On the same counts, the results for AAUAAGCAAUAUUACGCAGC are -3.5 ± 0.26 and -2.1 ± 0.23. On to UAUAAGCAAUAUUACGGUUU, for which the “self-splicing fitness (ln)” value was -2.58 ± 0.11 (30 °C) and -1.24 ± 0.099 (37 °C). For the sequence GUGCAGCAAUAUUACGAACC, the “self-splicing fitness (ln)” value runs as follows: (30 °C) -1.94 ± 0.3; (37 °C) 0.395 ± 0.48.

Take UUGAAGCAAUAUUACGGGCA: the “self-splicing fitness (ln)” value (30 °C) is 0.114 ± 0.11 and the “self-splicing fitness (ln)” value (37 °C) stood at 0.502 ± 0.13.

Regarding UAAAAGCAAUAUUACGCUGG, the “self-splicing fitness (ln)” value was -1.46 ± 0.13 (30 °C) and -1.65 ± 0.17 (37 °C).

As to UUGGAGCAAUAUUACGAGUG, the “self-splicing fitness (ln)” value reads like this: (30 °C) -4.05 ± 0.33; (37 °C) -3.04 ± 0.24. As for GUCCAGCAAUAUUACGUUUU, the “self-splicing fitness (ln)” value was -1.19 ± 0.052 (30 °C) and -0.221 ± 0.069 (37 °C). Consider GUUCAGCAAUAUUACGGAAU, for which the “self-splicing fitness (ln)” value is, setting by setting: (30 °C) -2.45 ± 0.19; (37 °C) -2.46 ± 0.27. The corresponding values for UCCCAGCAAUAUUACGCCCG are -3.3 ± 0.21 and -2.65 ± 0.31. The corresponding values for UCUCAGCAAUAUUACGAGCC are -1.14 ± 0.19 and -1.68 ± 0.41. As for GUCAAGCAAUAUUACGCUAA, the “self-splicing fitness (ln)” value was -1.48 ± 0.15 (30 °C) and -1.45 ± 0.14 (37 °C).

With GGGAAGCAAUAUUACGAGAC, the “self-splicing fitness (ln)” value reads like this: (30 °C) -1.98 ± 0.26; (37 °C) -2.1 ± 0.34.

On to GCACAGCAAUAUUACGAACA, for which the “self-splicing fitness (ln)” value was -1.42 ± 0.11 (30 °C) and -0.85 ± 0.1 (37 °C).

CGUGAGCAAUAUUACGUGCU: the “self-splicing fitness (ln)” value is, setting by setting: (30 °C) -3.78 ± 0.29; (37 °C) -2.97 ± 0.34. On the same counts, the results for UCUAAGCAAUAUUACGAGUG are -0.69 ± 0.092 and -0.683 ± 0.14.

On to GUAAAGCAAUAUUACGCAGG, for which the “self-splicing fitness (ln)” value runs as follows: (30 °C) -1.96 ± 0.12; (37 °C) -0.168 ± 0.14. On the same counts, the results for AAAGAGCAAUAUUACGAGGU are -4.63 ± 0.26 and -2.82 ± 0.19.

With CAGUAGCAAUAUUACGCUUA, the “self-splicing fitness (ln)” value (30 °C) was -0.683 ± 0.21 and the “self-splicing fitness (ln)” value (37 °C) was -0.832 ± 0.19.

In the case of CCAAAGCAAUAUUACGUUCA, the “self-splicing fitness (ln)” value (30 °C) is -2.59 ± 0.17 and the “self-splicing fitness (ln)” value (37 °C) was -3.38 ± 0.33. In the case of UCCAAGCAAUAUUACGCGAA, the “self-splicing fitness (ln)” value runs as follows: (30 °C) -2.43 ± 0.13; (37 °C) -0.748 ± 0.12. On to GGCCAGCAAUAUUACGGGGA, for which the “self-splicing fitness (ln)” value (30 °C) is -0.876 ± 0.068 and the “self-splicing fitness (ln)” value (37 °C) is -0.469 ± 0.073.

Consider CCAGAGCAAUAUUACGAUAC, for which the “self-splicing fitness (ln)” value reads like this: (30 °C) -2.7 ± 0.2; (37 °C) -1.71 ± 0.21. With AUGAAGCAAUAUUACGUGGA, the “self-splicing fitness (ln)” value was -2.73 ± 0.096 (30 °C) and -1.45 ± 0.11 (37 °C). On the same counts, the results for CAUCAGCAAUAUUACGGUCC are -1.37 ± 0.2 and -0.885 ± 0.29. For the sequence AGAAAGCAAUAUUACGUGGU, the “self-splicing fitness (ln)” value reads like this: (30 °C) -4.26 ± 0.29; (37 °C) -2.41 ± 0.16.

On to AGCCAGCAAUAUUACGUGUC, for which the “self-splicing fitness (ln)” value runs as follows: (30 °C) -3.17 ± 0.12; (37 °C) -0.932 ± 0.083. On to GGAGAGCAAUAUUACGUGCG, for which the “self-splicing fitness (ln)” value (30 °C) is -1.7 ± 0.14 and the “self-splicing fitness (ln)” value (37 °C) is -2.06 ± 0.23. The corresponding values for CAGGAGCAAUAUUACGGAUG are -2.46 ± 0.13 and -2.02 ± 0.17.

Regarding GAGGAGCAAUAUUACGACUU, the “self-splicing fitness (ln)” value is, setting by setting: (30 °C) -2.79 ± 0.23; (37 °C) -1.97 ± 0.2. On the same counts, the results for AUACAGCAAUAUUACGCAUC are -3.69 ± 0.16 and -2.8 ± 0.21.

Take CCAUAGCAAUAUUACGUUUG: the “self-splicing fitness (ln)” value is, setting by setting: (30 °C) -1.68 ± 0.1; (37 °C) -0.897 ± 0.1. The corresponding values for UCAAAGCAAUAUUACGCGCG are -0.683 ± 0.082 and 0.256 ± 0.097. The corresponding values for AGACAGCAAUAUUACGGCGA are -0.438 ± 0.069 and -0.143 ± 0.083. On the same counts, the results for UCUCAGCAAUAUUACGACAG are -2.76 ± 0.17 and -2.33 ± 0.17. As to UGUUAGCAAUAUUACGUAAA, the “self-splicing fitness (ln)” value by setting is: (30 °C) -0.887 ± 0.14; (37 °C) 0.19 ± 0.21. On to UCCCAGCAAUAUUACGAGGG, for which the “self-splicing fitness (ln)” value was -3.14 ± 0.17 (30 °C) and -3.02 ± 0.21 (37 °C). On the same counts, the results for GCCAAGCAAUAUUACGCAGA are -3.13 ± 0.16 and -2.22 ± 0.15.

These data come from the supplement of paper PMC7877785.
